Laboratory results published in patent publication US20150374794A1 (Novo Nordisk, published 2015).
Numbered stars: 1 amine (or outer) side, 2 acyl side, 3 side chain; on linkers, the order of the positions; unused ones are H or OH. Square brackets hold non-standard residues; d marks the D form. Side chains are listed from the residue outwards. Ends that are not written are not given here. * marks the point of attachment. C18 diacid = O=C(O)CCCCCCCCCCCCCCCCC(=O)*; γGlu = O=C(O)[C@H](CCC(=O)[*:2])N[*:1]; Ac4c = NC1(C(=O)O)CCC1; AEEA = NCCOCCOCC(=O)O; Aib = CC(C)(N)C(=O)O

B1: N^ε28-[(4S)-4-carboxy-4-[[(4S)-4-carboxy-4-[[2-[2-[2-[[2-[2-[2-[[(4S)-4-carboxy-4-(17-carboxyheptadecanoylamino)butanoyl]amino]ethoxy]ethoxy]acetyl]amino]ethoxy … (peptide)
peptide: H[Ac4c]QGTFTSDLSKYLESRRAREFVQWLLK([γGlu-γGlu-AEEA-AEEA-γGlu-C18 diacid])T-NH2
modifications: N-terminus assumed
SMILES: CC(C)C[C@H](NC(=O)[C@H](Cc1ccc(O)cc1)NC(=O)[C@H](CCCCN)NC(=O)[C@H](CO)NC(=O)[C@H](CC(C)C)NC(=O)[C@H](CC(=O)O)NC(=O)[C@H](CO)NC(=O)[C@@H](NC(=O)[C@H](Cc1ccccc1)NC(=O)[C@@H](NC(=O)CNC(=O)[C@H](CCC(N)=O)NC(=O)C1(NC(=O)[C@@H](N)Cc2c[nH]cn2)CCC1)[C@@H](C)O)[C@@H](C)O)C(=O)N[C@@H](CCC(=O)O)C(=O)N[C@@H](CO)C(=O)N[C@@H](CCCNC(=N)N)C(=O)N[C@@H](CCCNC(=N)N)C(=O)N[C@@H](C)C(=O)N[C@@H](CCCNC(=N)N)C(=O)N[C@@H](CCC(=O)O)C(=O)N[C@@H](Cc1ccccc1)C(=O)N[C@H](C(=O)N[C@@H](CCC(N)=O)C(=O)N[C@@H](Cc1c[nH]c2ccccc12)C(=O)N[C@@H](CC(C)C)C(=O)N[C@@H](CC(C)C)C(=O)N[C@@H](CCCCNC(=O)CC[C@H](NC(=O)CC[C@H](NC(=O)COCCOCCNC(=O)COCCOCCNC(=O)CC[C@H](NC(=O)CCCCCCCCCCCCCCCCC(=O)O)C(=O)O)C(=O)O)C(=O)O)C(=O)N[C@H](C(N)=O)[C@@H](C)O)C(C)C
B2: N^ε16-[(4S)-4-carboxy-4-[[(4S)-4-carboxy-4-[[2-[2-[2-[[2-[2-[2-[[(4S)-4-carboxy-4-(17-carboxyheptadecanoylamino)butanoyl]amino]ethoxy]ethoxy]acetyl]amino]ethoxy … (peptide)
peptide: H[Aib]QGTFTSDLSKYLDK([γGlu-γGlu-AEEA-AEEA-γGlu-C18 diacid])KRAQEFVQWLLNT-NH2
modifications: N-terminus assumed
SMILES: CC(C)C[C@H](NC(=O)[C@H](Cc1ccc(O)cc1)NC(=O)[C@H](CCCCN)NC(=O)[C@H](CO)NC(=O)[C@H](CC(C)C)NC(=O)[C@H](CC(=O)O)NC(=O)[C@H](CO)NC(=O)[C@@H](NC(=O)[C@H](Cc1ccccc1)NC(=O)[C@@H](NC(=O)CNC(=O)[C@H](CCC(N)=O)NC(=O)C(C)(C)NC(=O)[C@@H](N)Cc1c[nH]cn1)[C@@H](C)O)[C@@H](C)O)C(=O)N[C@@H](CC(=O)O)C(=O)N[C@@H](CCCCNC(=O)CC[C@H](NC(=O)CC[C@H](NC(=O)COCCOCCNC(=O)COCCOCCNC(=O)CC[C@H](NC(=O)CCCCCCCCCCCCCCCCC(=O)O)C(=O)O)C(=O)O)C(=O)O)C(=O)N[C@@H](CCCCN)C(=O)N[C@@H](CCCNC(=N)N)C(=O)N[C@@H](C)C(=O)N[C@@H](CCC(N)=O)C(=O)N[C@@H](CCC(=O)O)C(=O)N[C@@H](Cc1ccccc1)C(=O)N[C@H](C(=O)N[C@@H](CCC(N)=O)C(=O)N[C@@H](Cc1c[nH]c2ccccc12)C(=O)N[C@@H](CC(C)C)C(=O)N[C@@H](CC(C)C)C(=O)N[C@@H](CC(N)=O)C(=O)N[C@H](C(N)=O)[C@@H](C)O)C(C)C
B3: N^ε28-[(4S)-4-carboxy-4-[[(4S)-4-carboxy-4-[[2-[2-[2-[[2-[2-[2-[[(4S)-4-carboxy-4-[[(4S)-4-carboxy-4-(17-carboxyheptadecanoylamino)butanoyl]amino]butanoyl]amino … (peptide)
peptide: H[Ac4c]QGTFTSDLSKYLESRRAREFVQWLLK([γGlu-γGlu-AEEA-AEEA-γGlu-γGlu-C18 diacid])T-NH2
modifications: N-terminus assumed
SMILES: CC(C)C[C@H](NC(=O)[C@H](Cc1ccc(O)cc1)NC(=O)[C@H](CCCCN)NC(=O)[C@H](CO)NC(=O)[C@H](CC(C)C)NC(=O)[C@H](CC(=O)O)NC(=O)[C@H](CO)NC(=O)[C@@H](NC(=O)[C@H](Cc1ccccc1)NC(=O)[C@@H](NC(=O)CNC(=O)[C@H](CCC(N)=O)NC(=O)C1(NC(=O)[C@@H](N)Cc2c[nH]cn2)CCC1)[C@@H](C)O)[C@@H](C)O)C(=O)N[C@@H](CCC(=O)O)C(=O)N[C@@H](CO)C(=O)N[C@@H](CCCNC(=N)N)C(=O)N[C@@H](CCCNC(=N)N)C(=O)N[C@@H](C)C(=O)N[C@@H](CCCNC(=N)N)C(=O)N[C@@H](CCC(=O)O)C(=O)N[C@@H](Cc1ccccc1)C(=O)N[C@H](C(=O)N[C@@H](CCC(N)=O)C(=O)N[C@@H](Cc1c[nH]c2ccccc12)C(=O)N[C@@H](CC(C)C)C(=O)N[C@@H](CC(C)C)C(=O)N[C@@H](CCCCNC(=O)CC[C@H](NC(=O)CC[C@H](NC(=O)COCCOCCNC(=O)COCCOCCNC(=O)CC[C@H](NC(=O)CC[C@H](NC(=O)CCCCCCCCCCCCCCCCC(=O)O)C(=O)O)C(=O)O)C(=O)O)C(=O)O)C(=O)N[C@H](C(N)=O)[C@@H](C)O)C(C)C

How the values were obtained:
human GLP-1 receptor [1] = target: T1, human GLP-1 receptor (human, UniProt P43220 24-463); assay: cell-based or functional assay
human glucagon receptor [2] = target: T2, human glucagon receptor (human, UniProt P47871 26-477); assay: cell-based or functional assay
human GLP-1 receptor [3] = target: T1, human GLP-1 receptor; assay: displacement of 125I-GLP-1(7-36)NH2, membranes with human GLP-1R, SPA
Protocol: (§1) The receptor binding of each compound to the human GLP-1 receptor was measured in a displacement binding assay. […] Each derivative was added in a series of concentrations to isolated membranes containing the human GLP-1 receptor and displacement of the labelled ligand was monitored. The receptor binding was reported as the concentration at which half of the labelled ligand was displaced from the receptor, the IC₅₀ value.

human glucagon receptor [4] = target: T2, human glucagon receptor; assay: displacement of 125I-glucagon, membranes with human glucagon receptor, SPA
Protocol: as §1, with “human glucagon” for “human GLP-1”, “ligand is” for “ligand was”

T2 sequence (P47871 26-477): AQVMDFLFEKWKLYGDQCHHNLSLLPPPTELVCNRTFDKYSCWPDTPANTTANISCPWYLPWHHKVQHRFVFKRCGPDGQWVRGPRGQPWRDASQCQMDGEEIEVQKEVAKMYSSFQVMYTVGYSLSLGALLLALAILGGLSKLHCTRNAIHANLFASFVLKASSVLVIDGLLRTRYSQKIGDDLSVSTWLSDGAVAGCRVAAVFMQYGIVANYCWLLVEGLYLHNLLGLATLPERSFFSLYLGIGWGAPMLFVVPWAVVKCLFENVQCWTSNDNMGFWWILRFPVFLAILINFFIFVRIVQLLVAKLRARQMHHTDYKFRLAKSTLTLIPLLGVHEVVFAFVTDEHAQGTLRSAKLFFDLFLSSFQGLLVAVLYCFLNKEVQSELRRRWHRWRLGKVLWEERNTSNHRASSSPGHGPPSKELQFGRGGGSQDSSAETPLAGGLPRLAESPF

Binder	EC50 GLP-1R, CRE luciferase reporter gene assay in BHK cells (human GLP-1 receptor [1]) [nM]	EC50 GlucR, CRE luciferase reporter gene assay in BHK cells (human glucagon receptor [2]) [nM]	IC50 (human GLP-1 receptor [3]) [nM]	IC50 (human glucagon receptor [4]) [nM]
B1	0.003	0.01	0.3	
H[Aib]QGTFTSDLSKYLESRRAREFVQWLLKT-NH2 (not fully specified (residue 28))	0.0044	0.0624	0.4	6.7
B2			2.4	1.1
H[Aib]QGTFTSDLSKYLDKKAAREFVAWLLNT-NH2 (not fully specified)			0.2	53
H[Ac4c]QGTFTSDLSKYLESKRAREFVQWLLK([Gly-Ser-Glu-Gly-Ser-γGlu-γGlu-C18 diacid])T-NH2		0.004	0.2	0.6
H[Aib]QGTFTSDLSKYLESKRAREFVQWLLK([Gly-Ser-Glu-Gly-Ser-γGlu-γGlu-C18 diacid])T-NH2	0.0057		0.2	5.1
H[Aib]QGTFTSDLSKYLESKRAREFVQWLLK([γGlu-γGlu-Ser-Glu-Ser-γGlu-γGlu-C18 diacid])T-NH2	0.0027		0.2	1.7
H[Ac4c]QGTFTSDLSKYLESKRAREFVQWLLK([γGlu-γGlu-Ser-Glu-Ser-γGlu-γGlu-C18 diacid])T-NH2		0.005	0.3	0.6
B3	0.006	0.011	0.3	
